Data on three substances can be found in article PMC4686829.

Experiment [1] addresses HA glycoprotein of A/Shenzhen/406H/2006 (H5N1, clade 2.3.4) (influenza A virus A/Shenzhen/406H/2006 (H5N1)).
Experiment [2] addresses HA glycoprotein of A/Thailand/(KAN-1)/2004 (H5N1, clade 1) (influenza A virus A/Thailand/(KAN-1)/2004 (H5N1)).
The target in experiment [3] is HA glycoprotein of A/blackbird/Hunan/1/2004 (H5N1, clade 6) (influenza A virus A/blackbird/Hunan/1/2004 (H5N1)).
The target in experiment [4] is HA glycoprotein of A/common magpie/Hong Kong/5052/2007 (H5N1, clade 2.3.2.1) (influenza A virus A/common magpie/Hong Kong/5052/2007 (H5N1)).
In experiment [5] the target is HA glycoprotein of A/chicken/Guangxi/12/2004 (H5N1, clade 2.4) (influenza A virus A/chicken/Guangxi/12/2004 (H5N1)).
Experiment [6] concerns the target HA glycoprotein of A/chicken/Korea/es/2003 (H5N1, clade 2.5) (influenza A virus A/chicken/Korea/es/2003 (H5N1)).
In experiment [7] the target is HA glycoprotein of A/Indonesia/5/2005 (H5N1, clade 2.1.3.2) (influenza A virus A/Indonesia/5/2005 (H5N1)).
Experiment [8] has as its target HA glycoprotein of A/chicken/Henan/16/2004 (H5N1, clade 8) (influenza A virus A/chicken/Henan/16/2004 (H5N1)).
In experiment [9] the target is HA glycoprotein of A/goose/Guiyang/337/2006 (H5N1, clade 4) (influenza A virus A/goose/Guiyang/337/2006 (H5N1)).
Experiment [10] concerns the target HA glycoprotein of A/Turkey/65596/2006 (H5N1, clade 2.2.1) (influenza A virus A/Turkey/65596/2006 (H5N1)).
The target of experiment [11] is HA glycoprotein of A/silky chicken/Hong Kong/SF189/2001 (H5N1, clade 3) (influenza A virus A/silky chicken/Hong Kong/SF189/2001 (H5N1)).
In experiment [12] the target is HA glycoprotein of A/goose/Shantou/1621/2005 (H5N1, clade 9) (influenza A virus A/goose/Shantou/1621/2005 (H5N1)).
Experiment [13] has as its target HA glycoprotein of A/duck/Guangxi/1378/2004 (H5N1, clade 5) (influenza A virus A/duck/Guangxi/1378/2004 (H5N1)).
Experiment [14] addresses HA glycoprotein of A/Hong Kong/156/1997 (H5N1, clade 0) (influenza A virus A/Hong Kong/156/1997 (H5N1)) (UniProt O56140).
Experiment [15] has as its target HA glycoprotein of A/Chicken/Vietnam /NCVD-16/08 (H5N1, clade 7.1) (influenza A virus A/Chicken/Vietnam/NCVD-16/08 (H5N1)).
The target of experiment [16] is HA glycoprotein of A/Chicken/Vietnam/NCVD-03/08 (H5N1, clade 7.1) (influenza A virus A/Chicken/Vietnam/NCVD-03/08 (H5N1)).

As for 65C6, full-length human IgG1 (antibody), the IC50 of neutralisation of pseudovirus bearing this HA in experiment [1] is 0.02 µg/mL; in experiment [2], 0.029 µg/mL; in experiment [3] it was 0.007 µg/mL; in [4], 0.034 µg/mL; in experiment [5] it was 0.005 µg/mL; in [6] it was 0.005 µg/mL. For the same substance, the IC50 of neutralisation of pseudovirus bearing this HA in [7] is 0.004 µg/mL; in experiment [8] it was 0.014 µg/mL; in experiment [9] it was 0.025 µg/mL; in experiment [10] it was 0.002 µg/mL; in experiment [11], 0.011 µg/mL; in [12], 0.007 µg/mL. For the same substance, the IC50 of neutralisation of pseudovirus bearing this HA in [13] and in [14] was 0.005 µg/mL throughout.

With “100F4, full-length human IgG1 (antibody)”, the IC50 of neutralisation of pseudovirus bearing this HA in [1] was found to be 0.052 µg/mL; in experiment [2], 0.067 µg/mL; in experiment [3], 0.033 µg/mL; in [4], 0.066 µg/mL; in experiment [5], 0.015 µg/mL; in experiment [6], 0.016 µg/mL. For the same substance, the IC50 of neutralisation of pseudovirus bearing this HA was found to be 0.013 µg/mL in experiment [7]; 0.036 µg/mL in experiment [8]; 0.019 µg/mL in [9]; 0.004 µg/mL in [10]; 0.022 µg/mL in experiment [11]; 0.011 µg/mL in [12]. The figures for the IC50 of neutralisation of pseudovirus bearing this HA in experiment [13] and in experiment [14] were 0.021 µg/mL and 0.05 µg/mL, respectively.

Regarding “AVFluIgG03, full-length human IgG1 (antibody)”, the IC50 of neutralisation of pseudovirus bearing this HA is 0.002 µg/mL in [1]; 0.03 µg/mL in [15]; 0.004 µg/mL in [3]; 4.75 µg/mL in [7]; 0.069 µg/mL in experiment [16]; 1.86 µg/mL in experiment [10]. For the same substance, the IC50 of neutralisation of pseudovirus bearing this HA amounted to 0.069 µg/mL in experiment [11], 0.018 µg/mL in experiment [12], 0.009 µg/mL in experiment [13] and 0.008 µg/mL in experiment [14].
